This data set concerns the target SpYY1 (recombinant) (Strongylocentrotus purpuratus, UniProt A0A7M7RHL1 1-400). The data set can be described thus: EMSA; 250 nM protein, 10 nM probe; 50 mM NaCl, 50 mM Tris-HCl pH 7.5, 2 mM MgCl2, 1 mM DTT, 5% glycerol, room temperature 20 min; 10 nM probe; recombinant protein 0.5 uM (Methods) or 250 nM (Fig. 4 legend); lysate reactions with poly-dIdC (DNA) or yeast tRNA (RNA). Conditions: tags: His tag and EK site from pRSetB (text says C-terminal). Background: In EMSA bound probe runs differently from free probe, usually more slowly.

SpYY1 (recombinant), sequence (A0A7M7RHL1 entry or part of it): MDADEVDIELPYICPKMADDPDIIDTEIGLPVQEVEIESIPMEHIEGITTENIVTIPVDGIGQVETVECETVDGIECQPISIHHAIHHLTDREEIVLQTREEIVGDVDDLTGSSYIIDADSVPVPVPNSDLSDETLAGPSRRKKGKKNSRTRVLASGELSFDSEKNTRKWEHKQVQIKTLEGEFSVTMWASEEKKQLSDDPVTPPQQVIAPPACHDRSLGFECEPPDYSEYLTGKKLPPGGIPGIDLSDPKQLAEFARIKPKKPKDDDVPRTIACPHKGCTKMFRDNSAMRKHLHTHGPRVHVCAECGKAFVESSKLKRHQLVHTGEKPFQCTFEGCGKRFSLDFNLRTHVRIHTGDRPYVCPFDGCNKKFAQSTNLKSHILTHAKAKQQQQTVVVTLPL

B1: YY1 consensus DNA element (YY1C) (dsDNA)
DNA 1: CTAGGCGCTCCCCGGCCATCTTGGCGGCTGGT
DNA 2: ACCAGCCGCCAAGATGGCCGGGGAGCGCCTAG
As to B1, the binding result (label: 32P end-fill when probe) is “binds”.

B2: U(20) RNA (ssRNA)
RNA: UUUUUUUUUUUUUUUUUUUU
As to B2, the binding result (label: 5'-32P when probe, single strand) is “binds”.
